Measurements taken from paper PMC4371549 (The Biochemical journal, 2010).
Like-named read-outs stand apart in the source and are kept apart here.

Legend:
Test in all cases: resonant mirror detection
[1] = molecular target: full length recombinant human protein 4.1G (human, UniProt O43491 1-1005)
[2] = molecular target: recombinant 4.1R^135 (135kDa isoform of protein 4.1R) (human, UniProt P11171 1-864)
[3] = molecular target: T1, complex of 4.1G and CaM (human | , UniProt O43491 1-1005; P0DP23 1-149)
[4] = molecular target: T1, complex of 4.1G and CaM; remark: listed apart in the source

Sequence of full length recombinant human protein 4.1G (O43491 whole entry, canonical isoform): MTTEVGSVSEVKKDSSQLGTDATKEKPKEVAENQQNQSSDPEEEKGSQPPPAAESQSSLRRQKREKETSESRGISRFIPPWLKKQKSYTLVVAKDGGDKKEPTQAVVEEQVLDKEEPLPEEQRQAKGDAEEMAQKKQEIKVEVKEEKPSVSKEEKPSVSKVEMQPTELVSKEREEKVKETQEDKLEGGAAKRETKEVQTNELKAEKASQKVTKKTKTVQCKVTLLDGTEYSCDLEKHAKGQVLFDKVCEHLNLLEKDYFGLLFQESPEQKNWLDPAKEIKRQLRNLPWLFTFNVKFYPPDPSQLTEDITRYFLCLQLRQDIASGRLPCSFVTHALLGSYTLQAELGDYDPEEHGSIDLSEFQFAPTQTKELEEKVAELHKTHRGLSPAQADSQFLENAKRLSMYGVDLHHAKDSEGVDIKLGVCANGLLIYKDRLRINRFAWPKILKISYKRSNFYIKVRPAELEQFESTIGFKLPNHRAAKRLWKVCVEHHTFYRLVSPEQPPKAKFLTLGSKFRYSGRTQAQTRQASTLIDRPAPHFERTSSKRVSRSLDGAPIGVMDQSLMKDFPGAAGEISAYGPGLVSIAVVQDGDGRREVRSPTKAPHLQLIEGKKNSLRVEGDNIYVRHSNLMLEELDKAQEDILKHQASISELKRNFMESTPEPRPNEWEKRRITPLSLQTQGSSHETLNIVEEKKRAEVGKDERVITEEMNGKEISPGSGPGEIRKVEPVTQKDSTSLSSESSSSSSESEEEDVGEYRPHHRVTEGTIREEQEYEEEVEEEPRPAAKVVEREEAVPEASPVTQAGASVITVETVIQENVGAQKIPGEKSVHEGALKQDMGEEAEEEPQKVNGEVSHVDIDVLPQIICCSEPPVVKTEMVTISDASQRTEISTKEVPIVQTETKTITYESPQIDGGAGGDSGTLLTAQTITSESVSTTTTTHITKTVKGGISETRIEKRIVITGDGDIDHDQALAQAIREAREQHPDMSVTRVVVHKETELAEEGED
Sequence of recombinant 4.1R^135 (135kDa isoform of protein 4.1R) (P11171 whole entry, canonical isoform): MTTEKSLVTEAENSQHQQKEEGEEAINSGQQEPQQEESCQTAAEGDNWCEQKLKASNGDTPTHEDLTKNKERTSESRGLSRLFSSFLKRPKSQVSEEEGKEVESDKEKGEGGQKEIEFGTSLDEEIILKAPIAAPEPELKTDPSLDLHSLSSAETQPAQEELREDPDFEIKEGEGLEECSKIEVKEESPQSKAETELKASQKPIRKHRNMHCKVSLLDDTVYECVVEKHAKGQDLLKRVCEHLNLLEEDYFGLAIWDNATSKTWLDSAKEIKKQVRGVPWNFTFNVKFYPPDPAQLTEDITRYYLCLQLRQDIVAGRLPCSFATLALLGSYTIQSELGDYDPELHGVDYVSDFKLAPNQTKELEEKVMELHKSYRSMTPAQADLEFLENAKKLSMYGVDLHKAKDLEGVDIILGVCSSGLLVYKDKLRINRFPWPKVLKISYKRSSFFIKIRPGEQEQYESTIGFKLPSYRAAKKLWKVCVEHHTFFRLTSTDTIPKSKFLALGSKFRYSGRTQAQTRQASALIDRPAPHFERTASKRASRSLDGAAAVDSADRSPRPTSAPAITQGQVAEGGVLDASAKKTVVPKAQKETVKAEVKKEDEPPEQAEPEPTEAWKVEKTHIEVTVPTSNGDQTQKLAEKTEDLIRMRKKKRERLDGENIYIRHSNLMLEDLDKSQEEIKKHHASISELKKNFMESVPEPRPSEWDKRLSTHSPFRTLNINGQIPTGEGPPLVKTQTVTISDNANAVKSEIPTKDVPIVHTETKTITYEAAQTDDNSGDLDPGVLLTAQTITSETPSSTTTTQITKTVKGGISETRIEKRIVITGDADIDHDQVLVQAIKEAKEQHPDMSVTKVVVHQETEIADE

Kd [1]	koff [1]	kon [1]	Kd [2]	koff [2]	kon [2]	Kd [3]	koff [3]	kon [3]	Kd [4]	koff [4]	kon [4]	Binder
178 nM	0.0066 s⁻¹	38000 M⁻¹ s⁻¹	329 nM	0.015 s⁻¹	42000 M⁻¹ s⁻¹	197 nM	0.014 s⁻¹	71000 M⁻¹ s⁻¹				cytoplasmic domain of CD44 (domain or fragment, UniProt P16070 671-742, looked up) NSRRRCGQKKKLVINSGNGAVEDRKPSGLNGEASKSQEMVHLVNKESSETPDQFMTADETRNLQNVDMKIGV
185 nM	0.014 s⁻¹	80000 M⁻¹ s⁻¹	23 nM	0.0071 s⁻¹	310000 M⁻¹ s⁻¹	127 nM	0.064 s⁻¹	510000 M⁻¹ s⁻¹				cytoplasmic domain of band 3 (domain or fragment, UniProt P02730 1-403, looked up) MEELQDDYEDMMEENLEQEEYEDPDIPESQMEEPAAHDTEATATDYHTTSHPGTHKVYVELQELVMDEKNQELRWMEAARWVQLEENLGENGAWGRPHLSHLTFWSLLELRRVFTKGTVLLDLQETSLAGVANQLLDRFIFEDQIRPQDREELLRALLLKHSHAGELEALGGVKPAVLTRSGDPSQPLLPQHSSLETQLFCEQGDGGTEGHSPSGILEKIPPDSEATLVLVGRADFLEQPVLGFVRLQEAAELEAVELPVPIRFLFVLLGPEAPHIDYTQLGRAAATLMSERVFRIDAYMAQSRGELLHSLEGFLDCSLVLPPTDAPSEQALLSLVPVQRELLRRRYQSSPAKPDSSFYKGLDLNGGPDDPLQQTGQLFGGLVRDIRRRYPYYLSDITDAFSP
						155 nM	0.013 s⁻¹	84000 M⁻¹ s⁻¹	1250 nM	0.015 s⁻¹	12000 M⁻¹ s⁻¹	RYMYRHKGTYHTNEAKGTEFAESADAALQGDPALQDAGDSSRKEYFI (domain or fragment, UniProt P04921 82-128, looked up) [cytoplasmic domain of glycophorin C]
181 nM	0.0085 s⁻¹	47000 M⁻¹ s⁻¹	248 nM	0.0047 s⁻¹	19000 M⁻¹ s⁻¹							p55 (natural protein, UniProt Q00013 1-466, looked up) MTLKASEGESGGSMHTALSDLYLEHLLQKRSRPEAVSHPLNTVTEDMYTNGSPAPGSPAQVKGQEVRKVRLIQFEKVTEEPMGITLKLNEKQSCTVARILHGGMIHRQGSLHVGDEILEINGTNVTNHSVDQLQKAMKETKGMISLKVIPNQQSRLPALQMFMRAQFDYDPKKDNLIPCKEAGLKFATGDIIQIINKDDSNWWQGRVEGSSKESAGLIPSPELQEWRVASMAQSAPSEAPSCSPFGKKKKYKDKYLAKHSSIFDQLDVVSYEEVVRLPAFKRKTLVLIGASGVGRSHIKNALLSQNPEKFVYPVPYTTRPPRKSEEDGKEYHFISTEEMTRNISANEFLEFGSYQGNMFGTKFETVHQIHKQNKIAILDIEPQTLKIVRTAELSPFIVFIAPTDQGTQTEALQQLQKDSEAIRSQYAHYFDLSLVNNGVDETLKKLQEAFDQACSSPQWVPVSWVY
